Measured values: the DeepSol protein solubility set

Test: soluble on expression in E. coli; label from the status in PepcDB or PDB records

Sequence	soluble on expression in E. coli
MGRKEEDDCSSWKKQTTNIRKTFIFMEVLGSGAFSEVFLVKQRLTGKLFALKCIKKSPAFRDSSLENEIAVLKKIKHENIVTLEDIYESTTHYYLVMQLVSGGELFDRILERGVYTEKDASLVIQQVLSAVKYLHENGIVHRDLKPENLLYLTPEENSKIMITDFGLSKMEQNGIMSTACGTPGYVAPEVLAQKPYSKAVDCWSIGVITYILLCGYPPFYEETESKLFEKIKEGYYEFESPFWDDISESAKDFICHLLEKDPNERYTCEKALSHPWIDGNTALHRDIYPSVSLQIQKNFAKSKWRQAFNAAAVVHHMRKLHMNLHSPGVRPEVENRPPETQASETSRPSSPEITITEAPVLDHSVALPALTQLPCQHGRRPTAPGGRSLNCLVNGSLHISSSLVPMHQGSLAAGPCGCCSSCLNIGSKGKSSYCSEPTLLKKANKKQNFKSEVMVPVKASGSSHCRAGQTGVCLIM	soluble
MGRSRRTLPEELLLLALDPTTGTTAQPQSLDLGLAGAQLVELALAGRIAPDGDRIAVVAPRPTGDPTLDCALELLRRRGAPVRAVNWIGGPRLGLRQTYLSHLERCGMVHAVEGQMCGVLPTTRYQATDTAISREIKARLDSAIRTGVPPDPRTAALAALAHAVGLGKHLYPGNEGRSSRSRLRDLIRHDPMGGLVAHAVMDVQNGAAAQPRRSPAPAGRQAPGPGARPAPEPARGVPAQPRHGSMARAAVHLEHHHHHH	soluble
MGRVGVLLANLGTPDDYSYWPMRRYLNEFLSDKRVIDYPAWKWQPILQGIILTKRPFSSGAAYESIWNHDKGESPLMTITKDQTAKLRAALAERYGDRVMVDFCMRYGNPSTKSKVRQMVTEGCDRILFFPLYPQYAGATTATANDQFFRALMDETWQPAARTVPAYFDQPAYVDALAQSIERAYAAMDSRPDVLVCSYHGMPERYLMQGD	not soluble
MGSDAFDEMDEIWALYADDGAQALDAMEASLLALQAGEDAAAHVGPLFRAVHTFKGNSRVLGLSVVESRAHLCEDLIGLVRDAGVPMDGEIVEILLFASDTLRAMLEETAASRADVEGTGSEALMDQLRSKIARCSRSHHHHHH	soluble
MGSDKIHHHHHHACDDDEATDPYDINYVYIYKPSETNATLEYKGDGTFLKEIATEHILSPVRCTKPAPQDLTIQLAIDRSLVDAYNSEYGTSYVALQNAELENATLYIKQGEYISVDTLKVHYTNMEEFKNGSENYILPIAITSINGTGVSASESNSKIFLTFESTYKPNHVTLTSSKEYLLEYQYSQGFTNLSSEWKLDGILKSAWAADGDTKVTLAINPALVGTYNALHGTDYSLLTSASLKQSTIMIKQGKTTPEESVALSFSDDMASVQLGTNYVIPVTITNVDGVGADIGENKVIYIVYKTALVGFLSCVDKPVGSVINDHSGWSFTLNGQSSDLYDYVPDGSILDIDLGKQENIKTIALHFYEWFYSSESASIAISNDGEKYEDLGVASGFANKTSYILLLVAKQAQYIRVTFHGALYYSPYINTVGIYTETE	not soluble
MGSDKIHHHHHHACDNSDRIETETQANGVLLNFNASTIDATTTETRSFVPIEGFAKNEYIFGMSVTKDNASRGEIFEGSRNLKATMSRPSGDAPWNWEFSNNASGTVVTPRGPEGKPLRVIAYYPAIAGTENFTDGIPFDFTQTNNPQQKEILYNTNTSYTIPSSGGSDKVTIPLKFQHAYSWISIKVTKSVDKGSHKLSGVSIDNLSGGWIKNKGKINPATGMAMQGAIQGPIGEVRTAEVLDPSGDTATPIIYDFLVPAFMDRNVKDDDLVFTLIIDGKKEIFSLGREHLNNDGDTYGFKQGYVNTYNVEFNNSSLNMRLLNWTSTRIDGDFGQNVTNPTNYQEMSFYYAEDNGGWTTANGKVFPPKYKDLPAGDRRYYNYLTTVKYGGNGEYVPAKPVTDPPPPKGIIIEDDANVATQEPACRLFQMTTKDVSIEPVPWEDEMGQLVAKELCRKYNGGGFKDWRLPRASELRALLVYAIYGAGTKQFINLKLTNDVNREKLYWTGTEESEDKAWAMLYYDDNTLVGRGPNISAQDKSTRLSVRCIRQLQ	not soluble
MGSDKIHHHHHHADLQSNFLKMLVTQMNNQDPLNPMDNAQLTSQLAQISTVSSMQTMNSTLTQLLNQTSASRAMDSAALIGRTVMVPGSQFSVKDGVAGQFGVDLPSTADAVTVNVLDAHGNVVRTIDMKGQTAGVHDIAWDGKNDAGVAVADGDYSFKVSATANGTSVQPVALVYGKVNSISGDSSGVLVDVGNGQQANVDDVRRIL	not soluble
MGSDKIHHHHHHAEAGVFSDVPTSHWSYPAIKDLAGKNIISGYGNGKFGFGDVATREQVAALIYRALLPNKQGGTFSNDGARYVLQDGSTLNNPYRDIRSGSTLFPEEVLTLTKLGVFNGDGNGGFRPKDSVSRAEMAQIIKNAFQVSAKQKHTFNDVPDGFWAEGAISAVQSNGIASGTGDGKFEPAKTVTREQYAQFLYNALQYKKPAVAVQDTGDAALLAAFKDEVQKRINAYETNITLPYKTTNSNTKEVMNTLFNAYKEVASKNEYTNNNRSNVSYGLSGSPGNYTFTLKITYRETKEQTEYVMKQAKAIVSSITQVGMDDHEKVKAIHDYVVKHVSYDTSYKAYTAYEALVNRSAVCQGYALLTYQLLKEAGIENHFVVGTGDGQPHAWNLVKIENKWYHLDTTFDDPVPDEQGRVTYSYFNLSDEQIARNHEWNRGDYPQATTNYYSTLTNKIAAGGTKTSAYQQILKDTKLNYLGNEYIANNYNEFKNKMQQRYNEKSPKIEILYKQSMDGALQDVKKAIGEIGYPQGANRVSYKAEPYNAKEGYSLVTITFM	not soluble
MGSDKIHHHHHHAGSCTGNFEEYNTNQFQIHEADPSTLMKSMIETIVNIQQNDSQMMDQMVGQLGGYLTCANVWSGTNFGTFNQSDAWNAGPWNTNFEKIYGNFFQIQEATNESGHYYAFARMIRAITMLRVADCYGPMPYSQVKKGNFYVAYDTEEQVYKNIMEDFASAANVLYNYYKDTNGNAPLASNDPVFSGNYANWARLANSMRLRVAIRISTAYPEMAKENAEAAASHEAGLIEANNDNAMMDCGSQTNPYQLAAVSWGDLRVNANIVDYMNGYGDPRMSKYFNHSTFTGHTQEYVGMRSGEDGFAKSDVAGYSIPAITGTSKLLVFCAAETAFLRAEGKLKNWSVGNKSAKEYYEEGIKLSMEQYGTTMPDNYLTNTEKPTVSHNNDPRGHAYTISNTVAVAWNDNNEEENLQRIITQKWIANYPLGLEAWAEYRRTGYPELYPCIDNLSPSGVDSKRGMRRLRFPYTEVQNNHSNYQQGVSYLKNGGPDNEATDLSWGKTN	not soluble
MGSDKIHHHHHHAHTRAIDNIANSGDMVTMSGTVKLYAKTAQDGGVVNTLTLQVSDFTGLDTGTGSKTVEISGAATYIEVEGNIDGSATKTDDVNSRQGGVTSDAVRVVGGAAIVTGGSTSTCSIEVAPEMARVEVKGDLGSSFTNLAELKVKGIYLNNVKQKRADAAVVKTTKASAPDWTTAYTAGGTKSNLYNTFIGTPITKFDSGKADGYNFFPQDFHIASLSAAATTKEEAAKYHPHVIMEVEYKMNGVGALSKTGWLNVVALKDNTSSSYIGEFANGKVYQLDLADIKKIMDVPVPPVTVDPDPDAVNVDVTVTVKGWELVFIKPEV	not soluble
MGSDKIHHHHHHAKSVATTEHLKRYTEAISHDSCQGRKPFSEGADRAVNYIAHQMKEVGLKPINGDSYFQQVNIISSRTRCPDPMVLKTPKGKIPLDWLEGYTAFSARIEPEIDIDNAELVFAGYGIVAPEYGKNDFEGIENPQDKVAVVIVNDPGLGSDNTDYFNGDIMTYYGRWMYKFEEGARQGLKGVLIIHEDRGAGYPWSVVRASAQSKMYVDSDSDAYHCPLNGWIQFNAAKQLLADNGYDIDQLIEQSKSPDFKPISLKSTVTVSMRNTFDRQQSPNVIGYIPGSGNTDESVIYLGHWDHLGYGAPINGDSIINGATDNAVAIAWMLEMARCFNVLKEKPRRNIVFLSPTCEETGFLGTKYYVEHPLFPIDKIAAVINLDVFPLWGENNDVTITGYGNSELDDTLAELAKKYNRYIMPDPDAYNGMFYRSDHFPFVQKGIPAMFAKGWNDNRKQGKEWAKEHIAHYWAETYHKPTDQTHPDTDDYSGLLQEVQLFFDLGYKLAQDTGYPKWKPKSEFANVLKR	not soluble
MGSDKIHHHHHHAQNFSDYFEDKTLRADYIFTGDAKKQEVYLDELSSLPQWAGRKHHLAELPLAGNGEITMKDKATGETIYRTSFSSLFQEWVSEEEASRIKRGFENSFLLPYPKKEAVVTISLKDVYHKVNASLTHEIIPNDILIHQRGTNHITPHRYLLQNGNAADCIDVAIMAEGYTEKEMDIFYKDAQTACDALFSHEPFKKLKDKFNIVAVASPSEDSGVSIPGQGKWKSTAVSSHFNTFYSDRYLTTSRVKSIHNWLAGIPYEHIIILANTDTYGGGGIYNSYTLTTAHHPDFQPVVVHEFGHSFGGLADEYAYTETPSPQYPYEVEPWEPNITTLIDFDSKWKDMIPEGTAIPTPVATENADLYTKVGVYEGAGYTQKGLYRPTTECRMKINEAPAFCPVCQRALERLINFYTAK	not soluble
MGSDKIHHHHHHAQRGKRAMNRIDREVQETVFIPKGTWMAGGTVSYSEHDEGNLNFLVLKNVEGKGYNFGVSPYVGYFFRNNISAGMRFAYHRDYLDLKNFELNLGEDFNISLDNLYYLEHKYEVSGFLRTYMPIGRSKIFGLFNEARLTYGYGTGKNSTGTGATYDGSYQTAQNLQIGIAPGMTAFITDWSAVEVSVGVMGFDFKWIDQKTNQIEEGHQRVSSGNFKINLFSINIGMTFYL	not soluble
MGSDKIHHHHHHASHYLLLGGSGWDKIAIVNKNTKEIEWEHPLEKGWECNSVAVTPDRNILFSYSKGAKLITRDHEEVWNISAPEGCEMQTARVLPNGNYLLAWCGYPATIMEVNAKGEILSKTDFDTHIEQPHAQFRQVNKNKQGNYLVPLFATSEIREISPSGQLLKSVKVDGNPFSVAALDNGNYLVACGDAHCFIELNFETGDIVRKVNENDIEGAQLFFVAQLLPKRDGGLYICNWQGHDGEAAKGHYPQLIEINGAGKMVWDLNDNATFGMISSICPID	not soluble
MGSDKIHHHHHHATPAEIPFDAVLAGQTPMLFKGLVRDWPLVQAGLGSPQAARDYIRAHDRGVPVVGYTGDPAIKGRFFYNDTLTGLNFKAERAPLEAFLGRIEAVEGQENAPAIYIGSTDLDAYFPSLKAENDLGLGPEVYGPQPPMAGIWLGNRTVAAAHYDMSNNIAVCAVGRRRFTLFPPDQVANLYPGPLEPTPGGQVVSMVDFETPDFDRHPRFREALASAQVAEMEPGDVLVYPALWWHQVEALDGFNVLMNYWWNATPAFVDTPMTTLLHGLLSLRDRPDFEKQGWKALFDYYVFGPAERAGAHLPDDARGPLGALDDLKARRLRAWLLDRLNR	not soluble
MGSDKIHHHHHHEHNRSAVTTEGGYYDTEKGFESLINSCYTPLRFWGGKSAAMAFSETGTDILAPGGGCDYPAIVSYQNDFDGTNPISKEYYDRFYKAINFCNTAIYHVKNVPFSDKTLTSKREAEVRFLRAYYYWILVETFGDTYYTDQPSESIVMAPRKTSVAEIYTHIFEDLDFCMDSRLSVAQADGGRVTMWAAKALKARLLLTRASELNDKALYEQAYTLAKEVIDNGPFELSKDFASVFDMENSDGNGNKEVIWYIDYSSTNQLYNQEMDNDIIRSGGNHTHLIFCMKYDDQPGMVRSIEYGRPFNHYMPTRYLLDCYDENIDQRFEVTFRSLWKANGGKTGDNYPYMVQGDTAIWITKDVVPQVKRQWAKGRYQILDRTDIYHEDGSVKSQKQCMPISKFEDPTRATVNEDRGTRDAFIIRVAEMYLIVAEAGAKAGKADALAYMNILRAQRAKAGKEEAMKVAQSDIEDIDFILDERARELVGEQLRWFDLKRMGSEIFIRRIKSGNPDAGKNVKAYHMLRPFPQTLLDAITNKDEFLQNEGYK	not soluble
MGSDKIHHHHHHENLYFQGMIKLIATDIDGTLVKDGSLLIDPEYMSVIDRLIDKGIIFVVCSGRQFSSEFKLFAPIKHKLLYITDGGTVVRTPKEILKTYPMDEDIWKGMCRMVRDELPACDYFAATPDFCFAEDGGSPIFHLLRDSYGFEMREVDDITRLDRNDIIKFTVFHPDKCEELCTPVFIPAWNKKAHLAAAGKEWVDCNAKGVSKWTALSYLIDRFDLLPDEVCCFGDNLNDIEMLQNAGISYAVSNARQEVIAAAKHTCAPYWENGVLSVLKSFL	soluble
